For experiment [1], the target named is PI3Kα-RBD, PIK3CA-RBD(157-289) (human) (UniProt P42336). As to the kind of experiment: ITC; RAS GTPase (GMPPNP-bound, 300–500 μM) in the syringe, PI3K isoform or PI3Kα-RBD (30–50 μM) in the cell; 25 °C; 20 mM HEPES pH 7.4, 150 mM NaCl, 5 mM MgCl2, 1 mM TCEP; one set of sites; two replicates. In general terms: In ITC the heat of successive injections is recorded.

Experiment [2] has as its target PI3Kα-RBD-K206A (human) (UniProt P42336). Described as above.
Experiment [3] addresses PI3Kα-RBD-K210A (human) (UniProt P42336). The description is as above.
For experiment [4], the target named is PI3Kα-RBD-Q205A (human) (UniProt P42336). The experiment is described as above.
Experiment [5] addresses PI3Kα-RBD-S231A (human) (UniProt P42336). The experiment is described as above.
Experiment [6] addresses PI3Kα-RBD-T208A (human) (UniProt P42336). Described as above.
Experiment [7] addresses PI3Kα: p110α(2-1068) W1057A/I1058A/F1059A + p85(322-600) (human) (UniProt P42336). The experiment is described as follows: ITC; GMPPNP-bound RAS (300–500 μM) in the syringe, PI3K isoform or PI3Kα-RBD (30–50 μM) in the cell; 25 °C; 20 mM HEPES pH 7.4, 150 mM NaCl, 5 mM MgCl2, 1 mM TCEP; one set of sites; duplicates.
Experiment [8] has as its target PI3Kδ: p110δ(1-1044) + p85(322-600) (human) (UniProt O00329). The experiment is described as above.
For experiment [9], the target named is p110α-RBD(157-289) K206A (human) (UniProt P42336). The description is as above.
In experiment [10] the target is p110α-RBD(157-289) K210A (human) (UniProt P42336). The description is as above.
Experiment [11] has as its target p110α-RBD(157-289) T208A (human) (UniProt P42336). The description is as above.
For experiment [12], the target named is PI3Kα-RBD, PIK3CA-RBD(157-289) (human) (UniProt P42336). The experiment is described as above.

The term Kd denotes a measure of binding affinity in units of concentration. As a reminder, the stoichiometry N is a count of units in the complex or per binding partner. In experiment [1], “RRAS2-T52R, GMPPNP-bound (from UniProt P62070 1-179) (domain or fragment)” registered a Kd of 28.5 µM and a stoichiometry N of 1.01 sites.
On the same counts, the results for “RRAS2-M78A, GMPPNP-bound (from UniProt P62070 1-179) (domain or fragment)” are 134 µM and 1.2 sites.
In the case of “RRAS2-G23D, GMPPNP-bound (from UniProt P62070 1-179) (domain or fragment)”, in [1], the Kd was 6.4 µM and the stoichiometry N amounted to 0.75 sites.
In the same order, the values of “RRAS2-D44A, GMPPNP-bound (from UniProt P62070 1-179) (domain or fragment)” are 28.2 µM and 0.81 sites.
As to “RRAS2, GMPPNP-bound (from UniProt P62070 1-179) (domain or fragment)”, the Kd in experiment [2] was found to be 107 µM; in experiment [3] it was 41.7 µM; in experiment [4] it was 8.2 µM; in experiment [5], 8.3 µM; in [6], 45 µM. In addition, the stoichiometry N in experiment [2] worked out at 0.92 sites; in experiment [3], 0.81 sites; in [4], 0.86 sites; in [5], 0.88 sites; in [6], 0.9 sites.
For the substance “RRAS2 (wild type) (from UniProt P62070 1-179) (domain or fragment)”, the values for the Kd in experiment [7] and in [8] were 3.9 µM and 14 µM, respectively. For the same substance, the dH in experiment [7] is -17 kcal/mol. This substance showed a fold reduction in affinity against wild-type p110α-RBD in [9] of 15 fold. In addition, the fold decrease in affinity against wild-type p110α-RBD in experiment [10] and in experiment [11] was 5 fold throughout.
“RRAS2-D42A, GMPPNP-bound (from UniProt P62070 1-179) (domain or fragment)”: in experiment [1], the Kd is 66.9 µM and the stoichiometry N came to 1.2 sites.
Take “MRAS, GMPPNP-bound (from UniProt O14807 1-178) (domain or fragment)”: in experiment [6], the Kd came to 19.5 µM and the stoichiometry N turned out to be 0.93 sites.
In experiment [1], “RRAS2-E74A, GMPPNP-bound (from UniProt P62070 1-179) (domain or fragment)” gave a Kd of 12.4 µM and a stoichiometry N of 0.83 sites.
On the same counts, the results for “RRAS2-G23V, GMPPNP-bound (from UniProt P62070 1-179) (domain or fragment)” are 12.8 µM and 0.91 sites.
On the same counts, the results for “RRAS2-R63A, GMPPNP-bound (from UniProt P62070 1-179) (domain or fragment)” are 6.4 µM and 0.9 sites.
In the same order, the values of “RRAS2-Y38F, GMPPNP-bound (from UniProt P62070 1-179) (domain or fragment)” are 4.3 µM and 0.92 sites.
As to “RRAS2-D42E, GMPPNP-bound (from UniProt P62070 1-179) (domain or fragment)”, in experiment [1], the Kd amounted to 16.1 µM and the stoichiometry N was found to be 0.89 sites.
“MRAS (wild type) (from UniProt O14807 1-178) (domain or fragment)”: in experiment [7], the Kd was determined as 5.3 µM and the dH was -17 kcal/mol.
In [1], “RRAS2-Q72L, GMPPNP-bound (from UniProt P62070 1-179) (domain or fragment)” displayed a Kd of 8.5 µM and a stoichiometry N of 0.88 sites.
With “RRAS2-F75A, GMPPNP-bound (from UniProt P62070 1-179) (domain or fragment)”, in experiment [1], the Kd came to 21.5 µM and the stoichiometry N is 1.11 sites.
On the same counts, the results for “RRAS2-Q72H, GMPPNP-bound (from UniProt P62070 1-179) (domain or fragment)” are 14.2 µM and 0.85 sites.
On the same counts, the results for “RRAS2-E48A, GMPPNP-bound (from UniProt P62070 1-179) (domain or fragment)” are 32.4 µM and 0.92 sites.
Consider “RRAS2 T52R (from UniProt P62070 1-179) (domain or fragment)”, for which the fold reduction in binding affinity against wild-type RRAS2 in experiment [12] stood at 7 fold.

The values are drawn from PMC11718114.
